EC50 data for five molecules are collected here from patent publication US20180244785A1 (MERRIMACK PHARMACEUTICALS, published 2018).

Experiment in all cases: ELISA, scFv on coated FGFR-Fc
A general note: An ELISA detects its analyte on a solid surface through an enzyme-linked reagent.

Experiment [1] concerns the target T1, recombinant human FGFR4 Fc fusion (human, UniProt P22455 144-369).
T1 construct: 19 used; also called FGFR4c; not shown: Fc part of the FGFR-Fc fusion
T1 sequence: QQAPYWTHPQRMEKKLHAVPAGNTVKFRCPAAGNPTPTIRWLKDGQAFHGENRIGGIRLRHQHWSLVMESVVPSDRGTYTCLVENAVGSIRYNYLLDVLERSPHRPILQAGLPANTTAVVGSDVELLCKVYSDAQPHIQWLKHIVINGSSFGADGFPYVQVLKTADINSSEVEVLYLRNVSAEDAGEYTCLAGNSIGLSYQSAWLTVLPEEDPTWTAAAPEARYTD
The protocol: (§1) To characterize the novel anti-FGFR antibodies, their relative ability to bind to each individual FGFR in vitro was compared. A solid phase-based ELISA was used to measure the relative binding of the candidate antibodies to immobilized recombinant human FGFR1c, FGFR2c, FGFR3c, and FGFR4. EC50 binding curves were generated for a subset of candidates (FIGS. 3A-3D, respectively; Table 1).
(§2) For the ELISA assay, the ability of each mAb to cross react with the […] FGF receptors was tested across a concentration curve in order to determine the relative binding across FGFR1-4. FGFR2IIIb was used as a negative control. Black 384-well Maxisorp plates were coated overnight with FGFR-Fc fusions in PBS to 1 ug/ml before washing and blocking with 75 ul/well Pierce Protein Free (PBS) Blocking Buffer for 1 hour at RT. Antibody dilutions were prepared freshly in 1% BSA- PBS+0.05% Tween20 and 25 ul of each antibody was added to wells in duplicate. Plates were incubated at RT for 2 hours, followed by addition of detection antibody at 50 ng/ml in 1% BSA PBS, 0.05% Tween20. ECL substrate (Pierce) was added and plates were read on the EnVision plate reader.

Experiment [2] addresses T2, recombinant human FGFR1c Fc fusion (human, UniProt P11362 141-376).
T2 construct: also called FGFR1IIIc; not shown: Fc part of the FGFR-Fc fusion
T2 sequence: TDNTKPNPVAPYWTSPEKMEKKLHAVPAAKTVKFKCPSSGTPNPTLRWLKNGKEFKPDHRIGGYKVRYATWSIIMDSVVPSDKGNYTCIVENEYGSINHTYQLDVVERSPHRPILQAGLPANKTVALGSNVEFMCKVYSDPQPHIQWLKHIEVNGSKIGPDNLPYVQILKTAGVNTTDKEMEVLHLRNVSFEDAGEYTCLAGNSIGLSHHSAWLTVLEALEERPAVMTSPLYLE
The protocol:
as §1, §2

In experiment [3] the target is T3, recombinant human FGFR3c Fc fusion (human, UniProt P22607 141-372).
T3 construct: also called FGFR3IIIc; not shown: Fc part of the FGFR-Fc fusion
T3 sequence: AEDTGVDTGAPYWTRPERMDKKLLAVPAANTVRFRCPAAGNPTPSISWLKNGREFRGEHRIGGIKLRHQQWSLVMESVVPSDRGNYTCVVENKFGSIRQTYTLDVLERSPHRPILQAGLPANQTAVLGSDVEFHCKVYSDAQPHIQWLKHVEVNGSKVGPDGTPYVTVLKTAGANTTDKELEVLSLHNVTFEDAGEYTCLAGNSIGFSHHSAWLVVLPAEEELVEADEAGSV
As for the experimental part:
as §1, §2

Experiment [4] concerns the target T4, FGFR2IIIb Fc fusion (negative control) (human).
T4 construct: also called FGFR2b; not shown: Fc part of the FGFR-Fc fusion
T4 chain: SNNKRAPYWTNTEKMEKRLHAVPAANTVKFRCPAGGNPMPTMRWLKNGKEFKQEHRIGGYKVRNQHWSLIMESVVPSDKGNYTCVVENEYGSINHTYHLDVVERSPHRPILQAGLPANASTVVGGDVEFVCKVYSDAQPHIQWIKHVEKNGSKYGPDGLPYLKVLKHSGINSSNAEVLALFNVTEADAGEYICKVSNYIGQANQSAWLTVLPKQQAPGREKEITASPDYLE
The protocol:
as §1, §2

Experiment [5] addresses T5, recombinant human FGFR2c Fc fusion (human, UniProt P21802 148-377).
T5 construct: also called FGFR2IIIc; not shown: Fc part of the FGFR-Fc fusion
The protocol:
as §1, §2

In general, EC50 refers to the midpoint of the concentration-response curve.

T5 sequence (P21802 148-377): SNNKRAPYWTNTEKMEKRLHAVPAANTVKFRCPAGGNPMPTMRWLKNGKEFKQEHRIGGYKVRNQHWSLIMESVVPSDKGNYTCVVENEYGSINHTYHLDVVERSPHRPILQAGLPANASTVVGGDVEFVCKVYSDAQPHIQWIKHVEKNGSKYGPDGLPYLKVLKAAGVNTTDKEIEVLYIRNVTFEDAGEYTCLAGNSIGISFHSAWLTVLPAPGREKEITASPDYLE

B1: Ab4 (scFv format) (scFv)
scFv: EVQLLESGGGVVQPGRSLRLSCAASGFTFSSYAMHWVRQAPGKGLEWVALISYDGSNKYYADSVKGRFTISRDNSKNTLYLQMNSLRAEDTAIYYCVRGAGRGYTYGPDGFDIWGQGTMVTVSSASTGGGSGGGGSDIVMTQTPLSLSVTPGQPASIFCKSSQSLIFGDGKTYLYWYLQKPGQPPRLLIYQVSNRFSGVPDRFSGSGAGTDFTLKISRVEAEDVGVYYCMQAKQFPWTFGQGTKLEIKRTVAAPSHHHHHH
notes: also called FGF#10
Turning to B1, the concentration for a half-maximal effect (EC50) in experiment [1] turned out to be 0.506 nM; in experiment [2], 0.247 nM; in experiment [3], 25.9 nM.

B2: Ab14 (scFv format) (scFv)
scFv: EVQLVETGGGLIQPGGSLRLSCVASGFTVSSNYMSWVRQAPGKGLEWVSVIFSDGTTYYADSVKGRFTISRDNSKNTLYLQMNSLKTEDTAVYYCVAGPANGAYDIWGQGTMVTVSSASTGGGSGGGGSNIQMTQSPSILSASVGDRVTITCRASQSISNWLAWYQQKPGKAPKLLIFRASTLESGVPSRFSGSGSGAEFNLTISSLQPDDFATYYCQQYNVYSGTFGQGTKVEIKRTVAAPSHHHHHH
notes: also called FGF#24
For B2, the half-maximal effective concentration (EC50) was 72 nM in experiment [1]; roughly 557000 nM in experiment [4]; 129 nM in experiment [2]; 75.7 nM in experiment [5]; 77.2 nM in experiment [3].

B3: Ab15 (scFv format) (scFv)
scFv: EVQLLESGGGVVQPGRSLRLSCAASGFTFSSYAMHWVRQAPGKGLEWVAVISYDGSNKYYADSVKGRFTISRDNSKNTLSLQMNSLRVEDTAIYYCVRGAGRGYTYGPDGFDIWGQGTMVTVSSASTGGGGSGGGGSGGGGSGGGGSDIVMTQTPLSLSVTPGQPASISCTSSRSLLHSDGKTYVYWYVQKSGQPPQLLIYELSNRFSGVPDRFSGSGSRTDFTLKISRVEAEDVGVYYCMQYIEAPLTFGGGTKVEIKRTVAAPSHHHHHH
notes: also called FGF#26
For B3, the EC50 in experiment [1] was 0.312 nM; in experiment [4], roughly 80000 nM; in experiment [2], 0.293 nM; in experiment [5], 0.247 nM; in experiment [3] it was 0.326 nM.

B4: Ab3 (scFv format) (scFv)
scFv: EVQLVESGGGVVQPGRSLRLSCAASGFTFSQYSMHWVRQSPGKGLEWVTLISFDGADKYYADSVKGRFTISRDNSNDTLFLHMNGLRVEDTAIYYCVRGAGRGYTYGPDGFDIWGQGTMVTVSSASTGGGGSGGGGSGGGGSGGGGSDIQLTQSPSSLSASVGDRVTITCRTSQTISRYLNWYQQQPGKAPKLLIYTATSLQSGVPSRFSGSGSGTDFTLTIGGLQPEDFAIYFCQQTYSAPLTFGGGTKVEIKRTVAAPSHHHHHH
notes: also called FGF#78
With B4, the half-maximal effective concentration (EC50) is 1.07 nM in experiment [1]; roughly 108000 nM in experiment [4]; 0.319 nM in experiment [2]; 0.62 nM in experiment [5]; 2.02 nM in experiment [3].

B5: Ab7 (scFv format) (scFv)
scFv: QVQLVESGGGVVQPGRSLRLSCAASGFTFSGYAIHWVRQAPGKGLEWVALISYDGSNKYYADSAKGRFTISRDNSKNTLSLQMNSLRVEDTAIYYCVRGAGRGYTYGPDGFDIWGQGTMVTVSSASTGGGGSGGGGSGGGGSGGGGSDIVMTQTPLSSPVTLGQPASISCRSSESLVYRDGNTYLSWLHQRPGQSPRLLIYKVSNRFSGVPDRFSGSGAGTDFTLKISRVEAEDVGVYFCMQATQFPWTFGQGTKVEIKRTVAAPSHHHHHH
notes: also called FGF#51
Regarding B5, the concentration giving a half-maximal response (EC50) is 0.278 nM in experiment [1]; roughly 96700 nM in experiment [4]; 0.201 nM in experiment [2]; 1.47 nM in experiment [5]; 1.36 nM in experiment [3].
